Assay results: patent US20260242735A1 (UNIVERSIT T BASEL, published 2026)

What was measured:
Experiment in all cases: alanine scan, flow cytometry, HEK293-T;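 note: antibody binding to each alanine-substituted CD33 mutant expressed transiently in HEK293-T, read as fluorescence minus background, mean of duplicates, relative to wild-type CD33 set as 100%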
human CD33 G188A = human CD33 G188A (human, UniProt P20138 18-364)
Method: (§1) An alanine scan on human CD33 was performed to the determine the residues on CD33 that are involved in binding to the antibodies investigated. […] Briefly, a mutation library of CD33 was created by high-throughput, site-directed mutagenesis. Each residue was individually mutated to alanine, with alanine codons mutated to serine. The mutant library was arrayed in 384-well microplates and transiently transfected into HEK293-T. Following transfection, cells were incubated with the indicated antibodies (IgG or Fab) at concentrations pre-determined using an independent immunofluorescence titration curve on wild type CD33. […] Binding of each antibody to each mutant clone was determined in duplicates. For each point, background fluorescence was subtracted from the raw data, which were then normalized to antibody reactivity with wild type CD33.
(§2) Critical residues for antibody binding (outlined in dark grey) were residues whose mutations led to a binding of the test Abs of less than 20%. Additional secondary residues (outlined in light grey) were identified that led to a binding of the test Abs of between 20 and 40% as compared to the wild type CD33.

human CD33 L229A = human CD33 L229A (human, UniProt P20138 18-364)
Method: as §1, §2

human CD33 P189A = human CD33 P189A (human, UniProt P20138 18-364)
Method: as §1, §2

human CD33 P175A = human CD33 P175A (human, UniProt P20138 18-364)
Method: as §1, §2

human CD33 H206A = human CD33 H206A (human, UniProt P20138 18-364)
Method: as §1, §2

human CD33 P203A = human CD33 P203A (human, UniProt P20138 18-364)
Method: as §1, §2

human CD33 V231A = human CD33 V231A (human, UniProt P20138 18-364)
Method: as §1, §2

human CD33 A183S = human CD33 A183S (human, UniProt P20138 18-364)
Method: as §1, §2

human CD33 D205A = human CD33 D205A (human, UniProt P20138 18-364)
Method: as §1, §2

human CD33 F216A = human CD33 F216A (human, UniProt P20138 18-364)
Method: as §1, §2

human CD33 T226A = human CD33 T226A (human, UniProt P20138 18-364)
Method: as §1, §2

human CD33 T192A = human CD33 T192A (human, UniProt P20138 18-364)
Method: as §1, §2

human CD33 A168S = human CD33 A168S (human, UniProt P20138 18-364)
Method: as §1, §2

human CD33 S181A = human CD33 S181A (human, UniProt P20138 18-364)
Method: as §1, §2

human CD33 P201A = human CD33 P201A (human, UniProt P20138 18-364)
Method: as §1, §2

human CD33 V234A = human CD33 V234A (human, UniProt P20138 18-364)
Method: as §1, §2

human CD33 V196A = human CD33 V196A (human, UniProt P20138 18-364)
Method: as §1, §2

human CD33 A182S = human CD33 A182S (human, UniProt P20138 18-364)
Method: as §1, §2

human CD33 T268A = human CD33 T268A (human, UniProt P20138 18-364)
Method: as §1, §2

human CD33 T299A = human CD33 T299A (human, UniProt P20138 18-364)
Method: as §1, §2

human CD33 A306S = human CD33 A306S (human, UniProt P20138 18-364)
Method: as §1, §2

human CD33 R286A = human CD33 R286A (human, UniProt P20138 18-364)
Method: as §1, §2

human CD33 G245A = human CD33 G245A (human, UniProt P20138 18-364)
Method: as §1, §2

human CD33 K313A = human CD33 K313A (human, UniProt P20138 18-364)
Method: as §1, §2

human CD33 P301A = human CD33 P301A (human, UniProt P20138 18-364)
Method: as §1, §2

human CD33 K283A = human CD33 K283A (human, UniProt P20138 18-364)
Method: as §1, §2

human CD33 P308A = human CD33 P308A (human, UniProt P20138 18-364)
Method: as §1, §2

human CD33 G260A = human CD33 G260A (human, UniProt P20138 18-364)
Method: as §1, §2

human CD33 H300A = human CD33 H300A (human, UniProt P20138 18-364)
Method: as §1, §2

human CD33 A255S = human CD33 A255S (human, UniProt P20138 18-364)
Method: as §1, §2

human CD33 I278A = human CD33 I278A (human, UniProt P20138 18-364)
Method: as §1, §2

human CD33 I262A = human CD33 I262A (human, UniProt P20138 18-364)
Method: as §1, §2

human CD33 K312A = human CD33 K312A (human, UniProt P20138 18-364)
Method: as §1, §2

human CD33 H285A = human CD33 H285A (human, UniProt P20138 18-364)
Method: as §1, §2

human CD33 H259A = human CD33 H259A (human, UniProt P20138 18-364)
Method: as §1, §2

human CD33 K315A = human CD33 K315A (human, UniProt P20138 18-364)
Sequence of human CD33 K315A (P20138 18-364 K315A limits assumed): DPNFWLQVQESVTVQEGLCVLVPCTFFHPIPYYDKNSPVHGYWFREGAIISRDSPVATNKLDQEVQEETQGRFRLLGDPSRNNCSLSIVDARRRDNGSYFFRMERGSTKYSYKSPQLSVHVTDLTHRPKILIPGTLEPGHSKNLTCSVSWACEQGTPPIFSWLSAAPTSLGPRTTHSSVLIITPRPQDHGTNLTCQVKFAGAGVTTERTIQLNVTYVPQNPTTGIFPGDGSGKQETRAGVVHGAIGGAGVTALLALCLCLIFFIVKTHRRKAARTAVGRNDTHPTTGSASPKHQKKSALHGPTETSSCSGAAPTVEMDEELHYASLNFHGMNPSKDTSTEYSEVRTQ
Method: as §1, §2

Sequence of human CD33 H285A (P20138 18-364 H285A limits assumed): as the sequence (P20138 18-364 K315A limits assumed) above, with H268A, A298K counted along it
Sequence of human CD33 T299A (P20138 18-364 T299A limits assumed): as the sequence (P20138 18-364 K315A limits assumed) above, with T282A, A298K counted along it
Sequence of human CD33 K312A (P20138 18-364 K312A limits assumed): as the sequence (P20138 18-364 K315A limits assumed) above, with K295A, A298K counted along it
Sequence of human CD33 A255S (P20138 18-364 A255S limits assumed): as the sequence (P20138 18-364 K315A limits assumed) above, with A238S, A298K counted along it
Sequence of human CD33 H259A (P20138 18-364 H259A limits assumed): as the sequence (P20138 18-364 K315A limits assumed) above, with H242A, A298K counted along it
Sequence of human CD33 P301A (P20138 18-364 P301A limits assumed): as the sequence (P20138 18-364 K315A limits assumed) above, with P284A, A298K counted along it
Sequence of human CD33 K283A (P20138 18-364 K283A limits assumed): as the sequence (P20138 18-364 K315A limits assumed) above, with K266A, A298K counted along it
Sequence of human CD33 G245A (P20138 18-364 G245A limits assumed): as the sequence (P20138 18-364 K315A limits assumed) above, with G228A, A298K counted along it
Sequence of human CD33 R286A (P20138 18-364 R286A limits assumed): as the sequence (P20138 18-364 K315A limits assumed) above, with R269A, A298K counted along it
Sequence of human CD33 P308A (P20138 18-364 P308A limits assumed): as the sequence (P20138 18-364 K315A limits assumed) above, with P291A, A298K counted along it
Sequence of human CD33 I278A (P20138 18-364 I278A limits assumed): as the sequence (P20138 18-364 K315A limits assumed) above, with I261A, A298K counted along it
Sequence of human CD33 I262A (P20138 18-364 I262A limits assumed): as the sequence (P20138 18-364 K315A limits assumed) above, with I245A, A298K counted along it
Sequence of human CD33 H300A (P20138 18-364 H300A limits assumed): as the sequence (P20138 18-364 K315A limits assumed) above, with H283A, A298K counted along it

| Mean % WT Binding (human CD33 G188A) | Mean % WT Binding (human CD33 L229A) | Mean % WT Binding (human CD33 T268A) | Mean % WT Binding (human CD33 T299A) | Mean % WT Binding (human CD33 A306S) | Mean % WT Binding (human CD33 R286A) | Mean % WT Binding (human CD33 G245A) | Mean % WT Binding (human CD33 K313A) | Mean % WT Binding (human CD33 P301A) | Mean % WT Binding (human CD33 K283A) | Mean % WT Binding (human CD33 P308A) | Mean % WT Binding (human CD33 G260A) | Mean % WT Binding (human CD33 H300A) | Mean % WT Binding (human CD33 A255S) | Mean % WT Binding (human CD33 I278A) | Mean % WT Binding (human CD33 I262A) | Mean % WT Binding (human CD33 K312A) | Mean % WT Binding (human CD33 H285A) | Mean % WT Binding (human CD33 H259A) | Mean % WT Binding (human CD33 K315A) | Binder | other results |
| --- | --- | --- | --- | --- | --- | --- | --- | --- | --- | --- | --- | --- | --- | --- | --- | --- | --- | --- | --- | --- | --- |
| 102% | 93.1% | – | – | – | – | – | – | – | – | – | – | – | – | – | – | – | – | – | – | Refmab #1 (antibody, V domains shown, In the alanine scan antibodies were used as IgG or Fab; also called hP67.6) VH: EVQLVQSGAEVKKPGSSVKVSCKASGYTITDSNIHWVRQAPGQSLEWIGYIYPYNGGTDYNQKFKNRATLTVDNPTNTAYMELSSLRSEDTAFYYCVNGNPWLAYWGQGTLVTVSS VL: DIQLTQSPSTLSASVGDRVTITCRASESLDNYGIRFLTWFQQKPGKAPKLLMYAASNQGSGVPSRFSGSGSGTEFTLTISSLQPDDFATYYCQQTKEVPWSFGQGTKVEVK | Mean % WT Binding (human CD33 P189A): 89.2%; Mean % WT Binding (human CD33 P175A): 89.4%; Mean % WT Binding (human CD33 H206A): 98.8%; Mean % WT Binding (human CD33 P203A): 103%; Mean % WT Binding (human CD33 V231A): 100%; Mean % WT Binding (human CD33 A183S): 85.4%; Mean % WT Binding (human CD33 D205A): 1.6%; Mean % WT Binding (human CD33 F216A): 87.3%; Mean % WT Binding (human CD33 T226A): 92%; Mean % WT Binding (human CD33 T192A): 101%; Mean % WT Binding (human CD33 A168S): 88.4%; Mean % WT Binding (human CD33 S181A): 85.5%; Mean % WT Binding (human CD33 P201A): 85.6%; Mean % WT Binding (human CD33 V234A): 85.8%; Mean % WT Binding (human CD33 V196A): 83.9%; Mean % WT Binding (human CD33 A182S): 85.8% |
| – | – | 102 % WT binding | 90.3 % WT binding | 102 % WT binding | 96.3 % WT binding | 84.3 % WT binding | 84.1 % WT binding | 101 % WT binding | 92.7 % WT binding | 94.3 % WT binding | 81.9 % WT binding | 76.5 % WT binding | 98.8 % WT binding | 99.1 % WT binding | 89.7 % WT binding | 83.8 % WT binding | 100 % WT binding | 97.4 % WT binding | 80.6 % WT binding | Refmab #1 (antibody, V domains shown, The alanine scan used IgG or Fab; also called hP67.6) VH: EVQLVQSGAEVKKPGSSVKVSCKASGYTITDSNIHWVRQAPGQSLEWIGYIYPYNGGTDYNQKFKNRATLTVDNPTNTAYMELSSLRSEDTAFYYCVNGNPWLAYWGQGTLVTVSS VL: DIQLTQSPSTLSASVGDRVTITCRASESLDNYGIRFLTWFQQKPGKAPKLLMYAASNQGSGVPSRFSGSGSGTEFTLTISSLQPDDFATYYCQQTKEVPWSFGQGTKVEVK | – |
| – | – | 107 % WT binding | 96.3 % WT binding | 85.1 % WT binding | 117 % WT binding | 112 % WT binding | 108 % WT binding | 91.8 % WT binding | 102 % WT binding | 89.7 % WT binding | 105 % WT binding | 98.9 % WT binding | 109 % WT binding | 106 % WT binding | 115 % WT binding | 110 % WT binding | 109 % WT binding | 109 % WT binding | 111 % WT binding | Refmab #2 (antibody, V domains shown, The alanine scan used IgG or Fab) VH: QVQLVQSGAEVKKPGSSVKVSCKASGGTFSDYAISWVRQAPGQGLEWMGRIIPILGVADYAQKFQGRVTITADKSTRTAYMELSSLRSEDTAVYYCARNWADAFDIWGQGTMVTVSS VL: DIQLTQSPSSLSASVGDRVTITCRASQGISSVLAWYQQKPGKAPKLLIYDASSLESGVPSRFSGSGSGTDFTLTISSLQPEDFATYYCQQFDSSITFGQGTKLEIK | – |
| 91.3% | 89.1% | – | – | – | – | – | – | – | – | – | – | – | – | – | – | – | – | – | – | Refmab #4 (antibody, V domains shown, In the alanine scan antibodies were used as IgG or Fab) VH: QVQLVQSGAEVKKPGESVKVSCKASGYTFTNYGMNWVKQAPGQGLEWMGWINTYTGEPTYADKFQGRVTMTTDTSTSTAYMEIRNLGGDDTAVYYCARWSWSDGYYVYFDYWGQGTSVTVSS VL: DIVMTQSPDSLTVSLGERTTINCKSSQSVLDSSTNKNSLAWYQQKPGQPPKLLLSWASTRESGIPDRFSGSGSGTDFTLTIDSPQPEDSATYYCQQSAHFPITFGQGTRLEIK | Mean % WT Binding (human CD33 P189A): 98.2%; Mean % WT Binding (human CD33 P175A): 106%; Mean % WT Binding (human CD33 H206A): 97.7%; Mean % WT Binding (human CD33 P203A): 112%; Mean % WT Binding (human CD33 A183S): 103%; Mean % WT Binding (human CD33 D205A): 0.1%; Mean % WT Binding (human CD33 F216A): 71.6%; Mean % WT Binding (human CD33 T226A): 91.9%; Mean % WT Binding (human CD33 T192A): 99.7%; Mean % WT Binding (human CD33 A168S): 99.9%; Mean % WT Binding (human CD33 S181A): 114%; Mean % WT Binding (human CD33 P201A): 103%; Mean % WT Binding (human CD33 V234A): 107%; Mean % WT Binding (human CD33 V196A): 102%; Mean % WT Binding (human CD33 A182S): 108% |
| – | – | 100 % WT binding | 92.9 % WT binding | 79.3 % WT binding | 101 % WT binding | 94.9 % WT binding | 87.7 % WT binding | 97.9 % WT binding | 84 % WT binding | 99.8 % WT binding | 106 % WT binding | 95.2 % WT binding | 113 % WT binding | 116 % WT binding | 111 % WT binding | 98.9 % WT binding | 95.2 % WT binding | 114 % WT binding | 48.4 % WT binding | Refmab #4 (antibody, V domains shown, The alanine scan used IgG or Fab) VH: QVQLVQSGAEVKKPGESVKVSCKASGYTFTNYGMNWVKQAPGQGLEWMGWINTYTGEPTYADKFQGRVTMTTDTSTSTAYMEIRNLGGDDTAVYYCARWSWSDGYYVYFDYWGQGTSVTVSS VL: DIVMTQSPDSLTVSLGERTTINCKSSQSVLDSSTNKNSLAWYQQKPGQPPKLLLSWASTRESGIPDRFSGSGSGTDFTLTIDSPQPEDSATYYCQQSAHFPITFGQGTRLEIK | – |
| – | – | 91.5 % WT binding | 85.6 % WT binding | 111 % WT binding | 92.4 % WT binding | 127 % WT binding | 137 % WT binding | 93.9 % WT binding | 90.9 % WT binding | 82.8 % WT binding | 140 % WT binding | 68.3 % WT binding | 97.7 % WT binding | 100 % WT binding | 130 % WT binding | 99.6 % WT binding | 94.3 % WT binding | 104 % WT binding | 136 % WT binding | Refmab #3 (antibody, V domains shown, The alanine scan used IgG or Fab) VH: QVQLVQSGAEVKKPGSSVKVSCKASGYTFTDYNMHWVRQAPGQGLEWIGYIYPYNGGTGYNQKFKSKATITADESTNTAYMELSSLRSEDTAVYYCARGRPAMDYWGQGTLVTVSS VL: DIQMTQSPSSLSASVGDRVTITCRASESVDNYGISFMNWFQQKPGKAPKLLIYAASNQGSGVPSRFSGSGSGTDFTLTISSLQPDDFATYYCQQSKEVPWTFGQGTKVEIK | – |
